Reference: the DeepSol protein solubility set

Test: soluble on expression in E. coli; label from the status in PepcDB or PDB records

Row | Sequence | soluble on expression in E. coli
1 | MSLQPVAKTEQPEGGILYDFGKETFGFITLKNLSGKGKIDLYYGESPEEAKDKAYCETLDKLLLEPGQITDLAIRSTSPLHHSDNEYTLENSKAFRYVYITHEPEVQIGEVSMQYEYLPEEYRGNFRCNDEELNCIWEVGAYTMHLTTREFFIDGIKRDRWVWSGDAIQSYLMNYYLFFDSESVKRTIWLLRGKDPVTSHSNTIMDYTFYWFLSVYDYYMYSGDRHFVNQLYPRMQTMMDYVLGRTNKNGMVEGMSGDWVFVDWADGYLDKKGELSFEQVLFCRSLETMALCADLVGDKDGQQKYEKLASALKAKLEPTFWNNQKQAFVHNCVDGRQSDAVTRYANMFSVFFDYLNADKQQAIKQSVLLNDEILKITTPYMRFYELEALCALGEQETVMKEMKAYWGGMLKAGATSFWEKYNPEESGTQHLAMYGRPYGKSLCHAWGASPIYLLGKYYLGVKPTKEGYKEFAVSPVLGGLKWMEGTVPTPNGDIHVYMDNKTIKVKATEGKGYLTIQSREGHHHHHH | not soluble
2 | MGSDKIHHHHHHMMKMAEFIMVVGTSSNSGKTTITAGLCRILANKGYKVAPFKSQNMSLNSRVAKEDGEIAIAQYTQSLACRVEPSVHFNPILLKPKGNFISQVIVHGRPYKDMNYNEYRKNKDFFLKKIKESLEILDREYDYVIMEGAGSCCEINLLKDDIANLRIAELVNAKAILVADIDRGGVFASIYGTIKLLPENWRKLIKGIIINKFRGNVEVLKEGIEKIEELTGIPVLGIVPYDENLVLPEEDSQVLQSMRSFGNAKSGVEINVVRFSKISNFTDLDPLRYDAFIKFIDFDDDITGDILIFPGTRSSTKEAYYLKQHNFDEKVLEFLKDGGIVIGICGGYQVLGKELIDKEKKESDVGDIEGLKIFDAKTYFGNDKVVKNSCGFLEIDNKTFNVKGYEIHEGFTYSKEKPLIKIERGFGNCGNGFDGSIKKFGDGLAIGTYFHGIFENYEFRNYIINLIRKRKGLDEIYGDSYKDSIEKSLNYFAEVVERSVNLKPLGINAT | not soluble
3 | MGSDKIHHHHHHLNTRDFEYFLALTQTRNFSQTAEQFAVSQPTITTAIKRLEDSFQAQLIIRDRRHHDIGVTSAGKQLAAHAQVILQQLTLAQQEIAWDQTNKIRFGLPPIIGNYFFPKIAPQLIAAGLMPQLQTVEAGSAALLNQIKQGDLDFALLGASGPLQEPDLTISQIGTAPFVIITSESDPLAQKDKVRFAELAMQKFVTLSEAFVHTRAFTWFQQQSAFIPNVVYQTGDVQLLKQMVVQNVGIGFLTNLAINPDDHLAAVKLTDPKQPVFTISIVRRKDRVLTPAMQHFNQILAAN | not soluble
4 | MGSDKIHHHHHHMMGGEFTLTEREAEYLFRIIDSSINIFRRHQFFLWAQGELQGLLPHGMLICLFDEGNGQAVNIERFSRTDMDEIRFSELCRPDGGIVFRAMSAWSAGKNQPLLVCPNNSHTPTYKRFSNDLKRENLQRIAAHGMFDTNGRTTCFFTFTQISAALSERHAYFLELLMPHMHMALVRMLFHERHHKQGAVGERSRKLITDRETEILRHVQAGKSNHEIAQLLYISPLTVKNHIQKILKKLDVNNRAHAVAKAMALKITL | not soluble
5 | MKDTLKIGLLGLGTVGTGVLTLLKEHQEKISQVTGMNVVIEKAFVRNLETKQAQAEEYGLSLTTSIDDILEDKEIQIVVELMGTIEPAKTYIMKALEKGKHIVTANKDLLAQHGSELVALAQKHHCDLYYEASVAGGIPILRTIANSLAADNIQQVLGIVNGTTNYMLTQMVSADKSYEEALAEAQALGFAEADPTNDVDGIDAAYKMVILSQFAFGMNVSLPQVDIRGIRGLSLDDVAMAKQLGYEIKLIGSAEQNENSISVEVAPMLVNQKHPIASVRNEYNAVFIKSAGVGESMYYGPGAGAKPTATSVVSDLITIAKNIRLATTGHMFNSYQHKTQLTSSENVFGQYYFSLDVPDTPGQFLQLTQLMTKAEVSFDQLVQQKSDGQRARIVAITHQISKAQMQQVVIAIQNTEAFQLLNVMKVIGDE | not soluble
6 | MGSDKIHHHHHHMSQSAITVDQVTVTYRNGHTALRDATFQVPGGSIAALVGVNGSGKSTLFKALMGFVHLAQGDITILQQSVNKALKKNLIAYVPQSEEVDWSFPVLVEDVVMMGRYGHMGWLRRPTAHDHACVDAALARVDMQEYRHRQIGELSGGQKKRVFLARAIAQDGQVILLDEPFTGVDVKTEARIIDLLRELRDEGRTMLVSTHNLGSVTEFCDYTVMIKGTVLASGPTETTFTAANLEQAFSGVLRHIALSGGEEHIITDDERPFISRRVASGGKSS | not soluble
7 | MRTLFFIPSMGSVRLPLIDFLVKNDIEYVILSRRNHVAVQREIALDMFLEMKDYDTLAFLDEDVVPIEIDFQKVEAKFNEGYDVVCGYYYLKTLRGYSVYRKDWEKEIFDGEVNGCGLGFTFIKREFLEKIKRPAFLAFKPIESPHWIGEDVYFFSTHKPRTYALSSLKAYHFIDERLALSPDRKLILQNDHVARIKHHHHHH | soluble
8 | MPKKNNTKRAPPSVPKPSGPPPRLLQLTSSDGHLLQGDIRALLLSSTLAATIRELGYDKEYCAELKPVPVNNVVGFTLKLLIEWCDKHKEDDPAIALAEKDKKNICIPSWDRHFLSRLPMSNLFDLITAAYHLDVTGLINYGCKTVANSAKGKNAEEMRELFGIPEPWEQPSTSTATWDD | not soluble
9 | MQEVHDYGAYLILDEYGGVRAFLPWSEIASRAVRNIHAVLKPRQKVVVKVIRVYKKRGQVDVSLKRVMDSEKKRKMMFYKRYLKAATLVELIAEKLGKSVDEAYREVLWKLEDAYGDPMKGLEAAVLQGREALEKAGVPEEWIEPLLETAKTHVRVKTVKITFYLTLRSMAGDGVERVRKVLEAAKSQIESFKDSKVVARIYTVGAPKYRVELQGYNYKTLEKALEKMVEAARKTASKLGVEFSFERED | soluble
10 | MRPLTLHTPKPLVRAGGIPLIEYHLNALRAAGFHQLVINHAWLGQQIEDYLGDGQRFDLSIRYSAEGQPLETGGGIQRALPLLGAEPFVVVNGDVWTDYDFGALRMPLAGLAHLVLIDNPAHHPTGDFSLVDGQVRDDDSAGLRLTYSGIAILHPQLFADCEPGAFKLAPLLREAMHQGLVTGEHFKGRWVDVGTHERLAEVEQLLAETRLEHHHHHH | not soluble
11 | MSLSEPILFVDDEQHVLNALQRVFSESGLETVFTRSPIEALELCRSKKFAVIVSDNMMPEMKGIELLTRIKEESPETVKCLLTAHADLDTALQAINSGEVFRFIVKPWRNEELYQAVSEGVARFRIWDALRQHDEGVLHSLAETIELKDHYTRGHCNRVADHALRICELLKLPSTTSREIRYGSWLHDCGKIGVPETILNSTCMLSEQEMIVVRKHPEWGANVAQQANLSPTLINIIRHHHERFDGTGYPFGLKGVSIPLEARIVAVADVFDALTTDRPYKPAMSFAKAHKLMGDMRGNHLEGRLVDMFFQTLDTEKTGSEGHHHHHH | not soluble
12 | MGSDKIHHHHHHMKIDEFNKALDRGEISPLYYFHGDEPHLMERAVKRLMDSAVPPDFRDFNLDVFYGNECKGDEVASVAQTLPMFADRRMVLVKRAGDLSAAALEILASCVADPPPTTCLVFMGEKVDQRKKFFQEMKKKGELVECKRPYENQLGAFIREEAKGLGKRVEPAAAEMLVYLVGNNLGELSTQLEKVALYVGQRETISVEDVRGIVSDTKVESVFDLTNALGERNVVKALRSLATILRDGEAPLMLLAMIARHFRQLWRVRDLMAQKVPQQDISRLAGINPYFIKGVMAQARNFSASELKKVFEGLYATDLALKGGGAKRPTLTLEKLVMDVCGMGSR | not soluble
13 | MKKILDACCGSRMFWFDKQNDQVLFMDNRKHYEKLESGHIVAVNPNIVADFRKMPFDDNSFYHVVFDPPHLLRAGSNSWLAKKYGKLNEQTWKEDIQKGFSECMRVLKPNGTLVFKWNEDQIKLSEILSIIDYEPLYGNKRAKTHWLVFMKESEENESNGLEHHHHHH | not soluble
14 | SNPTITRIELSYQDSSIANGTSTTLEVTAIFDNGTNQNITDSTSIVPDSQSVVTIEGNRVRGIASGSSIIKAEYNGLYSEQKITVTPAILNSIQVTSLESGILPKGTNRQFSAIGIFSDGSHQDISNEPLIVWSSSNPDLVRVDDSGLASGINLGTAHIRASFQSKQGAEEMTVGDAVLSQIQVTSNDLNIPLGKKQKLTATGIYSDNSNRDISSSVIWNSSNSTIANIQNNGILETADTGIVTVSASSENIIGSVKLIVTPAALVSISVSPTNSTVAKGLQENFKATGIFTDNSNSDITDQVTWDSSNTDILSISNASDSHGLASTLNQGNVKVTASIGGIQGSTDFKVTQAALTSIEVSPTRTSIAKGLTQKFTAIGIFTDNSKKDITDQVTWNSSSAIVSVSNLDNNKGLGKTNSVGNTTITATLGKVSGNTWFTVVPAV | not soluble
15 | NGNPIPMGYSQAVENNVQITNFALFSAAAIGVELCLFDEQNQETRLPMVRTENVWHLAVTGVKTGTEYAFRIHGEFANPQKLILDPYAKAVNGKPDLSSEESRSWFLLSDNRDNAHLAPRAVVIS | not soluble
16 | MHVDPIVEALIIRRKEHGLSREQMANIAGMSVKTYQRIERGESDLKLSQYRSILRSLNLTDLDIALDIRGIEHVTAEDLVTVARLLSPEAQSLLVRLLSLVLEQRSDPNAS | not soluble
17 | MSTRKLNKVMVQPVNLIFRYLQNRTRVQIWLYEDVTHRLEGYIIGFDEFMNVVFDEAEEVNMKTKGRNKIGRILLKGDNITLIHAAQQEA | not soluble
18 | MGSDKIHHHHHHMINPAHFDLQSLRIFLQVAQSGSLTKAAEKFHITLSALSKRIAELERTVDCALFIRMPRGLTLTPAGKELVNLAGNVLSNVERMASEMNDYAVGVRGHVHMWANTSAIIQFLPQDLASFLPTRPLIRINLEEKLSKTVVTALAMGEADIGIFVDNVGSQGVEKIPYRKDKLVVLVPPQHPLSALSDVSFNDTLGYDYVGLNSGSSLLKQLKDASDELGRVLRLRVQVSSFDGICRMIEAGLGISVLPEGAIRPEVLGTGLRAINLTDEWASRQLWLGVKSGAILQPEVTNLLTHLRQCGA | not soluble
19 | MGHHHHHHSHMANVLCNRARLVSYLPGFCSLVKRVVNPKAFSTAGSSGSDESHVAAAPPDICSRTVWPDETMGPFGPQDQRFQLPGNIGFDCHLNGTASQKKSLVHKTLPDVLAEPLSSERHEFVMAQYVNEFQGNDAPVEQEINSAETYFESARVECAIQTCPELLRKDFESLFPEVANGKLMILTVTQKTKNDMTVWSEEVEIEREVLLEKFINGAKEICYALRAEGYWADFIDPSSGLAFFGPYTNNTLFETDERYRHLGFSVDDLGCCKVIRHSLWGTHVVVGSIFTNATPDSHIMKKLSGN | not soluble
20 | MTATPLYCAEPARLDTARRLCERFSLPLIKQRPADGYWLELGSERLELLTTGKHGAVYAEFVEGAARHRREQGGGRGQPVAKAVGLKGAKDLPHVADATAGLGRDSFVLATLGCRVTMVERSPVAAALLADALERAQRDETTRDIAARMTLVHANSRNWLAGLTEAQRPDVVFVDPMFPDTDKKSAAAKKDMQAFQQVIGDDMDSAELLAAAIAAARVRVVVKRPRLGAAIAGVKPSAVLDGKSTRFDLYVIKALASGLEHHHHHH | soluble
